Experimental data as given in PMC8102515.
Where “and” joins values, the source holds several entries; their conditions need not be identical. Equal values may be shown once. Blank lines part the entries; values can stand above or below the binder they belong to.

Legend:
[1] = target: T1, human peroxiredoxin 6 (human), P30041; test: dynamic light scattering; hPrdx6 1.0 mg/ml, pH 8.0; fixed angle of 90°, laser 689 nm; conditions: remark: other sources report otherwise
T1 chain: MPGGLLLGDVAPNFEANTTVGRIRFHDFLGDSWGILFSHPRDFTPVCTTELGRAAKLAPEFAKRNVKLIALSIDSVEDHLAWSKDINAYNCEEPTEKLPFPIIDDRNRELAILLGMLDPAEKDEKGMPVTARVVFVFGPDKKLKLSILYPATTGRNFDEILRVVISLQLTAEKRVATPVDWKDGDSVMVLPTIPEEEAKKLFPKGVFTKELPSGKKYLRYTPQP

[2] = target: T1, human peroxiredoxin 6 (human), P30041; test: dynamic light scattering; hPrdx6 1.0 mg/ml, pH 3.0; fixed angle of 90°, laser 689 nm; conditions: remark: other sources report otherwise
[3] = target: T1, human peroxiredoxin 6 (human), P30041; test: dynamic light scattering; hPrdx6 1.0 mg/ml, pH 6.0; fixed angle of 90°, laser 689 nm; conditions: remark: other sources report otherwise
[4] = target: T1, human peroxiredoxin 6 (human), P30041; test: dynamic light scattering; hPrdx6 1.0 mg/ml, pH 9.0; fixed angle of 90°, laser 689 nm; conditions: remark: other sources report otherwise
[5] = target: T1, human peroxiredoxin 6 (human), P30041; test: dynamic light scattering; hPrdx6 1.0 mg/ml, pH 10.0; fixed angle of 90°, laser 689 nm; conditions: remark: other sources report otherwise
[6] = target: T1, human peroxiredoxin 6 (human), P30041; test: dynamic light scattering; hPrdx6 1.0 mg/ml, pH 2.0; fixed angle of 90°, laser 689 nm; two peaks; conditions: remark: other sources report otherwise
[7] = target: T1, human peroxiredoxin 6 (human), P30041; test: dynamic light scattering; hPrdx6 1.0 mg/ml, pH 5.0; fixed angle of 90°, laser 689 nm; two peaks; conditions: remark: other sources report otherwise
[8] = target: T1, human peroxiredoxin 6 (human), P30041; test: dynamic light scattering; hPrdx6 1.0 mg/ml, pH 4.0; fixed angle of 90°, laser 689 nm; oligomer told from the hydrodynamic diameter; conditions: remark: other sources report otherwise
[9] = target: T1, human peroxiredoxin 6 (human), P30041; test: dynamic light scattering; hPrdx6 1.0 mg/ml, pH 7.0; fixed angle of 90°, laser 689 nm; oligomer told from the hydrodynamic diameter; conditions: remark: other sources report otherwise
P30041 = test: dynamic light scattering; hPrdx6 1.0 mg/ml, pH 2.0; fixed angle of 90°, laser 689 nm; two peaks; conditions: other: dynamic light scattering

stoichiometry N [1]: 2
volume fraction of the dimer peak (Hd 6.31 nm) [1]: 100%
stoichiometry N [2]: 4
volume fraction of the tetramer peak (Hd 12.2 nm) [2]: 99.2%
stoichiometry N [3]: 2
volume fraction of the dimer peak (Hd 8.12 nm) [3]: 100%
stoichiometry N [4]: 2
volume fraction of the dimer peak (Hd 6.4 nm) [4]: 100%
stoichiometry N [5]: 2
volume fraction of the dimer peak (Hd 6.3 nm) [5]: 100%
stoichiometry N [6]: 2
volume fraction of the larger peak (Hd 14.17 nm; the text's dimer) [6]: 30.2%
stoichiometry N [7]: 2 and 4
volume fraction of the dimer peak (Hd 6.39 nm) [7]: 29.8%
volume fraction of the tetramer peak (Hd 13.44 nm) [7]: 70.2%
stoichiometry N [8]: 4
volume fraction of the tetramer peak (Hd 13.75 nm) [8]: 99.6%
stoichiometry N [9]: 2
volume fraction of the dimer peak (Hd 7.1 nm) [9]: 100%
B1: human peroxiredoxin 6, P30041 1-224 (enzyme)
chain: T1 chain

B2: human peroxiredoxin 6 (protein)
chain: T1 chain
volume fraction of the monomer peak (Hd 3.7 nm) (P30041): 69.8%
